Test results reported in PMC8113463, “Structural visualization of transcription activated by a multidrug-sensing MerR family regulator” (Nature Communications, 2021).

Columns and labels:
[1] = target: T1, EcmrR (full length) (Escherichia coli, UniProt A0A8I3B051); format: binding; conditions: second site (site II) in CTD; TPSb+ in site I; 8 mM CHAPSO added before grid preparation; density of the sterol head, relevance of the site left open by the authors
T1 construct: E. coli BL21 Star (DE3); codon-optimised gene; homodimer on promoter DNA with E. coli RNAP-sigma70

[2] = target: T2, EcmrR CTD (Escherichia coli, UniProt A0A8I3B051); assay: X-ray crystal structure, […] Å; format: binding; conditions: sites I and II both occupied; detergent of the crystallisation solution, 5 mM
T2 construct: E. coli BL21 Star (DE3)

[3] = target: EcmrR (multidrug-sensing MerR family transcriptional regulator of Escherichia coli), full length, wild type (Escherichia coli); assay: cryo-EM structure
[4] = target: T3, EcmrR (UniProt PDB:6XLK_3 1-268); assay: cryo-EM (focused map of spacer DNA subcomplex within RPo); TPSb+, CHAPSO; RNAP present in the particle; Complex assembly: core RNAP:σ70:EcmrR-promoter 1:1.4:2, 5 mM MgCl2, 5 mM TPSb+ Br-, 23 °C 3 h, then (initial transcribing complexes) rNTPs 37 °C 10 min; SEC purified; DNA in 20 mM Tris-HCl pH 7.5, 100 mM KCl, 1 mM TCEP; final SEC buffer not given; conditions: protein: recombinant; tags: expressed as N-terminal His6-Smt3 fusion; chain copies: 2; pre-melted bubble from non-complementary strand segments, blunt ends
T3 sequence: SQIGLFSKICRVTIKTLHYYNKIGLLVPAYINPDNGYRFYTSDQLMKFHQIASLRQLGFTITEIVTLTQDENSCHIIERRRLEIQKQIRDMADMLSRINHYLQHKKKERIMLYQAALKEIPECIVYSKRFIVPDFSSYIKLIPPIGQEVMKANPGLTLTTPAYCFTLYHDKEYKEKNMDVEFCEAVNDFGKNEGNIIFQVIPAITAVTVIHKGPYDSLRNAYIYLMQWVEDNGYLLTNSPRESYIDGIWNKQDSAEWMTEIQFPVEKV

[5] = target: T3, EcmrR; assay: cryo-EM (focused map of spacer DNA subcomplex within RPitc-4nt); TPSb+, CHAPSO; RNAP present in the particle; Complex assembly: core RNAP:σ70:EcmrR-promoter 1:1.4:2, 5 mM MgCl2, 5 mM TPSb+ Br-, 23 °C 3 h, then (initial transcribing complexes) rNTPs 37 °C 10 min; SEC purified; DNA in 20 mM Tris-HCl pH 7.5, 100 mM KCl, 1 mM TCEP; final SEC buffer not given; conditions: protein: recombinant; tags: expressed as N-terminal His6-Smt3 fusion; chain copies: 2; blunt

Molecule: C[C@H](CCC(=O)NCCC[N+](C)(C)CC(O)CS(=O)(=O)[O-])[C@H]1CC[C@H]2[C@@H]3[C@H](O)C[C@@H]4C[C@H](O)CC[C@]4(C)[C@H]3C[C@H](O)[C@]12C (some centres unmarked) [CHAPSO, 3-([3-cholamidopropyl]dimethylammonio)-2-hydroxy-1-propanesulfonate]
- cryo-EM structure of the complex [1]: The density likely corresponds to the tetracyclic sterol head of CHAPSO

Molecule: CCCCCCCCCCCCCCCC[N+](C)(C)C [CTA^+]
- X-ray crystal structure, 1.4 Å [2]: wherein both sites are occupied by cetyltrimethylammonium cation (CTA^+)

Molecule: EcmrR (multidrug-sensing MerR family transcriptional regulator of Escherichia coli), full length, wild type (natural protein)
- stoichiometry N [3]: 2

B1: 54-bp heteroduplex promoter scaffold, 19-bp spacer (NT strand DNA-1 / T strand DNA-1) (dsDNA)
DNA 1: GCCTTGACCCTCCCCTAAGGGGAGGGTTTAGATTGTGTGCAGTCTGACGCGGCG
DNA 2: CGCCGCGTCAGACTCGTAGGAATCTAAACCCTCCCCTTAGGGGAGGGTCAAGGC
- binding result [4]: binds

B2: 54-bp fully complementary promoter scaffold, 19-bp spacer (NT strand DNA-1 / T strand DNA-2) (dsDNA)
DNA 1: GCCTTGACCCTCCCCTAAGGGGAGGGTTTAGATTGTGTGCAGTCTGACGCGGCG
DNA 2: CGCCGCGTCAGACTGCACACAATCTAAACCCTCCCCTTAGGGGAGGGTCAAGGC
- binding result [5]: binds
